In patent publication US11629193B2, “EGFR binding molecules” (F-STAR BETA LIMITED, priority 2016, dated 2023):

Assays:
[1] = system: LL2.ova; experiment: In vivo skin toxicity and tumour growth, syngeneic mouse tumour model LL2.ova; details: 250 μg intraperitoneally on days 3, 6 and 10; eight mice each
Protocol: Skin toxicity has been observed with known anti-EGFR therapies, resulting in skin rash, lesions etc. In order to determine the toxicity of anti-EGFR Fcabs and mAb^2 containing anti-EGFR Fcs, an in vivo study was conducted. […] The tumour cells (5×10^5 cells) were implanted subcutaneously in the flank of female C57B16 (Charles River) mice aged 6-8 weeks and the mice were randomly assigned to four cohorts of eight mice each. […] The tumour volumes were measured with electronic callipers at days 10, 12, 14, 17, 19, 20 and 21. At day 16 pictures of the mice were taken to illustrate the observed skin toxicity.

[2] = system: NCI-H1975 cells; experiment: Cell proliferation, NCI-H1975 cells stimulated with HGF; type: cell-based; details: NCI-H1975, antibodies 300 nM with and without erlotinib (2 μM)
Protocol: NCI-H1975 (ATCC CRL-5908) is a non-small cell lung cancer (NSCLC) cell line which expresses constitutively active mutated EGFR L858R and EGFR T790M (Kobayashi et al 2005). These mutations are acquired secondary mutations known to confer resistance to EGFR tyrosine kinase inhibitor (TKI) therapies in NSCLC patients. The NCI-H1975 cell line also expresses c-Met. […] The same method was used as in the U87MG assay described above, except that the NCI-H1975 cells were stimulated with HGF. One day before the treatment, the medium used was changed from containing 10% FBS to containing no serum. Treatments were added at various concentrations (0.003-300 nM) in the presence of 80 ng/ml HGF and incubated for 3 days at 37° C.

[3] = target: HGF (Homo sapiens, UniProt P14210); experiment: Free HGF in culture media of U87MG cells (HGF Human ELISA Kit); type: cell-based; set-up: examined in U87MG cells that secrete HGF; endogenous in cells; host or cells: U87MG; details: 30 nM, 4 days, compared to controls
HGF, sequence (P14210 32-728): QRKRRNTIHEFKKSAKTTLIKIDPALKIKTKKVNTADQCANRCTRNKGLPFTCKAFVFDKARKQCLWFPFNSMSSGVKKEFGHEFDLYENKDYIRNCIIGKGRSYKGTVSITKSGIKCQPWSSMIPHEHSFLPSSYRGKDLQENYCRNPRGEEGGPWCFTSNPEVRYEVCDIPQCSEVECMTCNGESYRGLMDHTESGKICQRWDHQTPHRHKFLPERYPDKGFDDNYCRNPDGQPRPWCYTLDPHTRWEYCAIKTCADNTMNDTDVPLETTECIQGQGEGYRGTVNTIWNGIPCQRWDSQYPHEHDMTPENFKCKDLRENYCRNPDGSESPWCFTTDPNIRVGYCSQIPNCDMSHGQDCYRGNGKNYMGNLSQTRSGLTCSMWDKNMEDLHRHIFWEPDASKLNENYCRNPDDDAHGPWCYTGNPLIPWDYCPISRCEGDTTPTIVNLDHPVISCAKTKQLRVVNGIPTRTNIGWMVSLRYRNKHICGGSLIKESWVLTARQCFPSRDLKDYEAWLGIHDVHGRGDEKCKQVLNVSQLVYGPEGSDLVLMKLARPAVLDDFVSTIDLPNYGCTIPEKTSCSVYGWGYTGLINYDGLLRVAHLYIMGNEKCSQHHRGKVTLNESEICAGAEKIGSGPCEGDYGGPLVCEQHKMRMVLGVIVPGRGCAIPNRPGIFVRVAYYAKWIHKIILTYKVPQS
Protocol: It was hypothesised that internalisation of HGF by anti-EGFR/HGF mAb^2 leads to reduced level of HGF in the system. To test this hypothesis, the change in level of free HGF caused by incubation with anti-EGFR/HGF mAb^2 was examined in U87MG cells that secrete HGF. U87MG cultures were incubated with different treatments at 30 nM for 4 days at 37° C. […] On day 4, the media from each cell culture were collected for HGF level analysis. HGF concentration was measured using HGF Human ELISA Kit (ThermoFisher, KAC2211) following the manufacturer's protocol. Using monoclonal anti-HGF antibodies, the free HGF in media was detected (free HGF was defined as HGF in the media which was bound by detection antibodies).

[4] = system: phosphorylation of MAPK and Akt; experiment: Western blot of downstream signalling in U87MG cells; type: cell-based, human; details: 200 nM (200+200 nM for combination), HGF and EGF present
Protocol: (§1) Overnight cultures of the glioblastoma cell line U87MG (ATCC HTB-14) were moved from a medium with 10% FBS to a low serum medium with 0.1% FBS to optimise sensitivity to ligand stimulation. The cells were incubated overnight. […] Controls without antibody treatment were included, with and without growth factor stimulation. The treated cells were lysed using lysis buffer (10 mM Tris® pH7.5, 150 mM NaCl, 1 mM EDTA) comprising 1:100 protease inhibitor cocktail (Calbiochem, 539131) and 1:100 Phosphatase inhibitor cocktail (Calbiochem, 524625) and the lysates collected for analysis.
(§2) Lysate samples were subjected to standard western blotting analysis using a 4-12% Bis-Tris® protein gel (ThermoFisher, NP0322BOX) and transferred to a nitrocellulose membrane (ThermoFisher, IB301001). The membrane was blocked with 5% Marvel milk/TBST and then probed for phospho-c-Met using a rabbit monoclonal antibody specific for c-Met phosphorylated at Tyr1234/1235 (Cell Signaling, 3077), phospho-EGFR using a mouse monoclonal antibody specific for EGFR phosphorylated at Tyr1068 (Cell Signaling, 2236), phospho-MAPK using a mouse monoclonal antibody specific for p44/42 MAPK (ERK1/2) phosphorylated at Thr202/Tyr204 (Cell Signaling, 9106), and phospho-Akt using a rabbit monoclonal antibody specific for Akt phosphorylated at Ser473 (Cell Signaling, 9271). […]

[5] = system: phosphorylation of c-Met and EGFR; experiment: Western blot of receptor phosphorylation in U87MG cells; type: cell-based, human; details: 200 nM, 20 min
Protocol: as §1, §2

Compound: 9D9m2a: anti-mouse CTLA4 antibody: 9D9 VH in mouse IgG2a backbone, heavy chain SEQ ID NO: 52, light chain SEQ ID NO: 50 [Fcab 9D9m2a, reference compound]
- Mice showing hair loss [1]: 0/8
- Skin lesions [1]: 0/8

Compound: C#Cc1cccc(Nc2ncnc3cc(OCCOC)c(OCCOC)cc23)c1 [erlotinib, reference compound]
- reduction of cell proliferation induced by HGF [2]: No effect

Compound: rilotumumab [reference compound]
- concentration of free HGF in the media [3]: significant decrease in the concentration of free HGF in the media
- block of phosphorylation of MAPK and Akt [4]: unable to block the phosphorylation of MAPK and Akt
- block of phosphorylation of c-Met by HGF [5]: able to block the phosphorylation of c-Met by HGF
